Experimental data from the DeepSol protein solubility set.

test: soluble on expression in E. coli; label from the status in PepcDB or PDB records

Sequence	soluble on expression in E. coli
MVRKVLIIGGGFSGMAAAIQMRKAGIDVDLVEIDPNWRPEGAGITVNGPTLRALETIGVFDEFARRGFTSSGVDLFTPTGQKIGEIPTPKVAGSDVPGGGGIMRPELGRILADATRGSDVSVRVGCTYTAIEQTGDQVTVAFTDGTTDTYDLVVAADGVHSKTRERFFPEVKPPQYIGQGVWRTVLPRPAEIVRPRMWLGGTVKVGVNPVSQTHLYMFITEARPEKTNLDPATFPDLVTSMLKSFPDPIVQSLIPHVFAAEAAIDYRPLANLLVPAPWNRGRVILIGDTVAATTPHLASGAGIGIESGIILAEELAKAATLQDAFDGFHARRWERCRMVIENSERLCRIEMENGDKAEHARIMRESVMALTQPILEHHHHHH	soluble
MNLDQELAEIRASSSDHTNYFYSSERREHMFDKVLTPSDVGKLNRLVIPKQHAENFFPLEDNQNGTVLDFQDKNGKMWRFRYSYWNSSQSYVMTKGWSRFVKEKKLFAGDTVSFYRGYIPDDNAQPERRRKIMFIDWRPRAEINFVHNINNHNFVFGSPTYPTARFYPVTPEYSMPYRSFPPFYQNQFQEREYLGYGYGRVVNGNGVRYYAGSPLDQHHQWNLGRSEPLVYDSVPVFPAGRVPPSAPPQPSTTKKLRLFGVDVEESSSSGDTRGEMGVAGYSSSSPVVIRDDDQSFWRSPRGEMASSSSAMQLSDDEEYKRKGKSLEL	soluble
MFTIRKATSDDCKLINELANQVFPATYKEILSTEQLDYMMEWMYAPENIRKQMEEEGHVYFIAYQGDEPCGYVSVQPQDADVFHLQKIYVLPGFQGAHLGSKLFDHAVQYIKEIHPSPCLMELNVNRNNKALHFYEHKGMKKLREGDFPIGNGYYMNDYIMGLEL	not soluble
MSLGQIKGDLHMHSTWSDGAFSIREMAEACIKKGYQYMAITDHSQYLKVANGLTAERLKQQAKEIDALNAEFENFRILKGVEMDILPDGTLDYDDDVLAEMDIVIASIHSSFNQPEHVIMKRLETALTNKHVDIIAHPTGRLIGRRAGYEIDIDQLIELARKTNTALELNANPARLDLRTEHLMKANEQGVTLVINTDAHNIEMLDDMKTGVTAARKGWTETKNVLNARSLKDVEAFLKRNDEGHHHHHH	soluble
MTLEKKEYGAPGFWPGSMIGRVHAFETPAPLTRAQLDRLRDEFFETRTEGHLEIWTAIRAASHAQEAGDDELAYAIITAVGILPAEVGPAGEGLGERIPFAEQPLDRLLGMICGCCFPAFTRYRTLERVYDQRGFLYETPKECIATPSNVLPDESTEASAR	not soluble
MAHHHHHHMMGISPEAVLLDFDWTASYVLATDRLSTAAMNRATARTVSMEGGADGADTKPRNSGGGMPLLQLAMDVARVAPPSEVASISPLVSPVSGVRLQLLATASSEMQGGGEGQPAERMLLPNDRLTMELDAESLDALIAALRTAVDGMDSLSGC	not soluble
GSAHRFPALTQEQKKELSEIAQSIVANGKGILAADESVGTMGNRLQRIKVENTEENRRQFREILFSVDSSINQSIGGVILFHETLYQKDSQGKLFRNILKEKGIVVGIKLDQGGAPLAGTNKETTIQGLDGLSERCAQYKKDGVDFGKWRPVLRIADQCPSSLAIQENANALARYASICQQNGLVPIVEPEVIPDGDHDLEHCQYVTEKVLAAVYKALNDHHVYLEGTLLKPNMVTAGHACTKKYTPEQVAMATVTALHRTVPAAVPGICFLSGGMSEEDATLNLNAINLCPLPKPWKLSFSYGRALQASALAAWGGKAANKEATQEAFMKRAMANCQAAKGQYVHTGSSGAASTQSLFTACYTY	soluble
MGSDKIHHHHHHMRRQLNGQMFVWLHVFACAARHLSFTRCAEELHITPGAVSQQMRQLEERLGYRLFLRRARGVELSAEGQRLAQTVAEAYGSIEAELLRLDAGEIRGTLRVRSIPSFLAKWLTPRLPRFQQRYPDIELRLVAEDSAQALTPGDFDLAIDLNDGSYPGMLSTPLLDEQIFPVCSPALLRGRPPLHGPADLAHYPLLHDITAWRGSSEYAEWEFYLEGIGAAGLDVRRGHTFNRNHLTIEAAIAGIGVAIARRTLLNDELERGALIVPFGVPIANHKRYVVHYPPGGLNQPGARAVHDWLVEEARGFRVLHPLNKE	not soluble
MGSDKIHHHHHHMAVKMIKVHGSGNDFYLLDQTQFQAPLSDADLKQLAINICKRDGAGLYDGADGVLVVDKSEHPQVLGRMRVINADGTEASMCGNGLRTVARYLGTQNSQEDFRVQTMYADLKVQAVADFAAHVPAYSVEISPVTFDAQTLGMHANNDATTIINEKIPALSADLKFSAVAVPNPHLIAFVDHDTLVGPELGRIGEWMNDGKNQIFPDGVNVSFVEVLGPNSIFVRTFERGVGFTNACGTAMSASSLMYVLLHQESTDFNQEIHVTNPGGMVKTVVHQGADEEYWMELIGNATFVRIVTLPLEDALQGDYSPVTATETGEQVAYEDFVANLAKA	not soluble
